IntAct's records for PubMed 31515488

What was measured:
[1] = molecular target: stk25_human STK25 (UniProt O00506)
[2] = molecular target: sf3a3_human SF3A3 (UniProt Q12874)
[3] = molecular target: FAM90A1 (UniProt Q86YD7)
[4] = molecular target: tpp2_human TPP2 (UniProt P29144)
[5] = molecular target: adas_human AGPS (UniProt O00116)
[6] = molecular target: zksc4_human ZKSCAN4 (UniProt Q969J2)
[7] = molecular target: scel_human SCEL (UniProt O95171)
[8] = molecular target: frih_human FTH1 (UniProt P02794)
[9] = molecular target: stk24_human STK24 (UniProt Q9Y6E0)
[10] = molecular target: echp_human EHHADH (UniProt Q08426)
Chain of echp_human EHHADH (Q08426 whole entry): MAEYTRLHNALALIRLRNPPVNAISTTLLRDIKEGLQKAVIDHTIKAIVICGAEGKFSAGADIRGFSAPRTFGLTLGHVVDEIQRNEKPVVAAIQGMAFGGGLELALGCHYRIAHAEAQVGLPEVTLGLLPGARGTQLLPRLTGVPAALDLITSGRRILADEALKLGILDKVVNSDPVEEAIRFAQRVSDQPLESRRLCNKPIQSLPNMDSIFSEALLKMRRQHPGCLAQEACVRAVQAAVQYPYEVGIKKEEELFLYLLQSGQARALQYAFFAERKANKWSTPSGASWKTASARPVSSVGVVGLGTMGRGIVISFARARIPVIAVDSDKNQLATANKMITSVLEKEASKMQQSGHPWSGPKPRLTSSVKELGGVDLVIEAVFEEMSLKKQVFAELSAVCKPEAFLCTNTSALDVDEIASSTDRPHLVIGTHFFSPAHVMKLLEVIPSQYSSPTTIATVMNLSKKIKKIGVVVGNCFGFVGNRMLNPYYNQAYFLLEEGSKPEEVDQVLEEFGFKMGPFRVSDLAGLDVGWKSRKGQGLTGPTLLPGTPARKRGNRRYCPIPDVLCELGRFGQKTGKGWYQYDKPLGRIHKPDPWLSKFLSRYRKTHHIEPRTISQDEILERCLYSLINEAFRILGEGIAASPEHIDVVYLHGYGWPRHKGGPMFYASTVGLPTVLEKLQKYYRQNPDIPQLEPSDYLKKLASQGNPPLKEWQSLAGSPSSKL

[11] = molecular target: dpolb_human POLB (UniProt P06746)
[12] = molecular target: pp16a_human PPP1R16A (UniProt Q96I34)
Chain of pp16a_human PPP1R16A (Q96I34 whole entry): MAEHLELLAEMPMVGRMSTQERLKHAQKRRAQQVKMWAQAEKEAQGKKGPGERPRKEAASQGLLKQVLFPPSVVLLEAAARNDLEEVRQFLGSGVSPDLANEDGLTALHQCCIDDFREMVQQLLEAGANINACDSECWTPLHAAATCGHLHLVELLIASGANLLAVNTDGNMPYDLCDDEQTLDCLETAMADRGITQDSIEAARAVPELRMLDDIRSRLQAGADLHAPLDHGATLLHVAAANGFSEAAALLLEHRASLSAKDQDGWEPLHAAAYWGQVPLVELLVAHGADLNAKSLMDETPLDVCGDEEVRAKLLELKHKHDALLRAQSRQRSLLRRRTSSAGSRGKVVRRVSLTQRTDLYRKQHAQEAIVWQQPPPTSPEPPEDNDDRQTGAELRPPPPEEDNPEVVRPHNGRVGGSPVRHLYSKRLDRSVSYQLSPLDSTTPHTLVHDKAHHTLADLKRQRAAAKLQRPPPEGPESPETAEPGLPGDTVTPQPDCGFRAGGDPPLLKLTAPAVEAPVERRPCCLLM

[13] = molecular target: nkap1_human NKAPD1 (UniProt Q6ZUT1)
[14] = molecular target: rby1a_human RBMY1A1 (UniProt P0DJD3)
[15] = molecular target: aen_human AEN (UniProt Q8WTP8)
[16] = molecular target: T1, rnps1_human RNPS1 (UniProt Q15287)
T1 sequence: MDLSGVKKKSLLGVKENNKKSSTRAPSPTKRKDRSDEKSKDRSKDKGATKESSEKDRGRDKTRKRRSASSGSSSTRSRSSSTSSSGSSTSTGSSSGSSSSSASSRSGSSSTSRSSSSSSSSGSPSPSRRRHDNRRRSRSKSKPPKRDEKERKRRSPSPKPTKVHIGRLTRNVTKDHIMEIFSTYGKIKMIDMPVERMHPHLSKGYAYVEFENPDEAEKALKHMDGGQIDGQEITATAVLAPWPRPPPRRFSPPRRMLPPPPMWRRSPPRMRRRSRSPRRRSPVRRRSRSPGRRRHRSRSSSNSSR

[17] = molecular target: T2, lc7l2_human LUC7L2 (UniProt Q9Y383)
T2 sequence: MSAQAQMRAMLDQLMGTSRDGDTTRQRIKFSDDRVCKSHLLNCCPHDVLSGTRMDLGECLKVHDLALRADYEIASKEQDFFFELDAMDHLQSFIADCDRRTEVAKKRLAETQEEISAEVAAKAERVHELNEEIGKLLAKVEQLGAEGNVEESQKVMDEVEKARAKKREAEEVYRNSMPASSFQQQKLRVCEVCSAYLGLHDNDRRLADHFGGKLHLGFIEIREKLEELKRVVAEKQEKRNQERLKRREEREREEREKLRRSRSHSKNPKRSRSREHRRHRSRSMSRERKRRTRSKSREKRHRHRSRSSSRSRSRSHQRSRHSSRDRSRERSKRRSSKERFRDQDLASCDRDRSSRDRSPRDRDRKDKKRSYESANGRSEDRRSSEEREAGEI

[18] = molecular target: glrx3_human GLRX3 (UniProt O76003)
[19] = molecular target: ndor1_human NDOR1 (UniProt Q9UHB4)
[20] = molecular target: lpxn_human LPXN (UniProt O60711)
[21] = molecular target: pak1_human PAK1 (UniProt Q13153)
[22] = molecular target: trip6_human TRIP6 (UniProt Q15654)
[23] = molecular target: rasf7_human RASSF7 (UniProt Q02833)
[24] = molecular target: ntaq1_human NTAQ1 (UniProt Q96HA8)
[25] = molecular target: klhl2_human KLHL2 (UniProt O95198)
[26] = molecular target: clip4_human CLIP4 (UniProt Q8N3C7)
[27] = molecular target: dpyl2_human DPYSL2 (UniProt Q16555)
[28] = molecular target: cryaa_human CRYAA (UniProt P02489)
[29] = molecular target: ei2ba_human EIF2B1 (UniProt Q14232)
[30] = molecular target: zmat1_human ZMAT1 (UniProt Q5H9K5)
[31] = molecular target: phs_human PCBD1 (UniProt P61457)
[32] = molecular target: T3, acy3_human ACY3 (UniProt Q96HD9)
T3 sequence: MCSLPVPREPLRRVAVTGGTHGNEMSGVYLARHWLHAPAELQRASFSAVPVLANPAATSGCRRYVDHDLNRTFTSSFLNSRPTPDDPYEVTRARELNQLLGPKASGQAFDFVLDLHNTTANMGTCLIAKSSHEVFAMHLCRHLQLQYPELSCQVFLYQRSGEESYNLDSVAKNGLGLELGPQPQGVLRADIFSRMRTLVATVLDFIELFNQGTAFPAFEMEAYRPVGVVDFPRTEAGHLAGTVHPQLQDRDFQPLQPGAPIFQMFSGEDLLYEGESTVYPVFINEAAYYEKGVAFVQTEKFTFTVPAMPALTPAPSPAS

[33] = molecular target: T4, dmc1_human DMC1 (UniProt Q14565)
T4 sequence: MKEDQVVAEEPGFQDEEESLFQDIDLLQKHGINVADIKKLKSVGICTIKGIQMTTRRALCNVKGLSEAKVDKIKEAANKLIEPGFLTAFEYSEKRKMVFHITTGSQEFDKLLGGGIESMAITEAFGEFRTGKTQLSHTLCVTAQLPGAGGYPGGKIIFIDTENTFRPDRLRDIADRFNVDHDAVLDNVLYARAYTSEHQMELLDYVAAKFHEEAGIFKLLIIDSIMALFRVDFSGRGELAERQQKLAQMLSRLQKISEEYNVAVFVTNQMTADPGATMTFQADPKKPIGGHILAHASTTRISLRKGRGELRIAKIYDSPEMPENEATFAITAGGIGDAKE

[34] = molecular target: cep63_human CEP63 (UniProt Q96MT8)
[35] = molecular target: sufu_human SUFU (UniProt Q9UMX1)
Chain of sufu_human SUFU (Q9UMX1 whole entry): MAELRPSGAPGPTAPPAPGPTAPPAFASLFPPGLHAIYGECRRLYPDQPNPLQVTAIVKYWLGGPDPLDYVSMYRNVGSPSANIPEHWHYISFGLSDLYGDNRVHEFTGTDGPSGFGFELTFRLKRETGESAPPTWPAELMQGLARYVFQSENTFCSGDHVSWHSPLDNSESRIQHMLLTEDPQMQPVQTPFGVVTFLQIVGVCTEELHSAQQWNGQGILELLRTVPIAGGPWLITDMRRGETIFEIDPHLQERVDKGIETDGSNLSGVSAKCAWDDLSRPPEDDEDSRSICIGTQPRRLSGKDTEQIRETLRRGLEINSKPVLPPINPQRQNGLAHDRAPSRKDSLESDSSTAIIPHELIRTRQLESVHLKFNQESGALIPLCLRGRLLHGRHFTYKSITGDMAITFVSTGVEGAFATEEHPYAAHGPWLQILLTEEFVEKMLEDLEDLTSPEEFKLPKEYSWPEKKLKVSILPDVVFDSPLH

[36] = molecular target: sufu_human SUFU (UniProt Q9UMX1); remark: listed apart in the source
[37] = molecular target: tri23_human TRIM23 (UniProt P36406)
[38] = molecular target: T5, cep55_human CEP55 (UniProt Q53EZ4)
T5 sequence: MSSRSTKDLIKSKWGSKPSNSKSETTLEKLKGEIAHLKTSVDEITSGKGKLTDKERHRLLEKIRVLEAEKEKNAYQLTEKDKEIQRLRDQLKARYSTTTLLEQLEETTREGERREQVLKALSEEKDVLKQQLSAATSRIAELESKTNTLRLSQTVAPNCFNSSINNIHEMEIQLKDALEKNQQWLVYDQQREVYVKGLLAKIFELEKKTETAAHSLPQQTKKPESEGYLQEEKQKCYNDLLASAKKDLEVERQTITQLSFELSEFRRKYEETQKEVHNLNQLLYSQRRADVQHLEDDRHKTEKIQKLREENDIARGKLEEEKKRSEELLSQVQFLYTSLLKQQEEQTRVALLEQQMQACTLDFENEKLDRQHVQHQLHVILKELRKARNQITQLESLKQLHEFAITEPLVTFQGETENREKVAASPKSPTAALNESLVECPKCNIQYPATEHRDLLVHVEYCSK

[39] = molecular target: gpt2l_human GPATCH2L (UniProt Q9NWQ4)
[40] = molecular target: mfap1_human MFAP1 (UniProt P55081)
[41] = molecular target: mdfi_human MDFI (UniProt Q99750)
[42] = molecular target: kr107_human KRTAP10-7 (UniProt P60409)
[43] = molecular target: zc4h2_human ZC4H2 (UniProt Q9NQZ6)

Chain of Zinc finger protein 223 (Homo sapiens), Q9UK11 S357A (Q9UK11 whole entry S357A): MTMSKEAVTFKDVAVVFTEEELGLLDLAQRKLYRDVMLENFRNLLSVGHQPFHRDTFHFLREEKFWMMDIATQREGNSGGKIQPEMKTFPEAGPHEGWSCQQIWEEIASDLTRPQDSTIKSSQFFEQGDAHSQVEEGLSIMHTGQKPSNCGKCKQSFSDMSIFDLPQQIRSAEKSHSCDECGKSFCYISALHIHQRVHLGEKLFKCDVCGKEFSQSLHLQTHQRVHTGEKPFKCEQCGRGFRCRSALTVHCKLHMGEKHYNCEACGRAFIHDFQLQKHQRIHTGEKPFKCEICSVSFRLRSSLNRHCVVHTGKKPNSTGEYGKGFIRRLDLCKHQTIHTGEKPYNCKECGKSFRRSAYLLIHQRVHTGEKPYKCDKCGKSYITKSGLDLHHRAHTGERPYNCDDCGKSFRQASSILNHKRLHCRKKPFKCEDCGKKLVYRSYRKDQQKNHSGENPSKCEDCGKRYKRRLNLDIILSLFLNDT
Chain of Zinc finger protein 317 (Homo sapiens), Q96PQ6 Q19H (Q96PQ6 whole entry Q19H): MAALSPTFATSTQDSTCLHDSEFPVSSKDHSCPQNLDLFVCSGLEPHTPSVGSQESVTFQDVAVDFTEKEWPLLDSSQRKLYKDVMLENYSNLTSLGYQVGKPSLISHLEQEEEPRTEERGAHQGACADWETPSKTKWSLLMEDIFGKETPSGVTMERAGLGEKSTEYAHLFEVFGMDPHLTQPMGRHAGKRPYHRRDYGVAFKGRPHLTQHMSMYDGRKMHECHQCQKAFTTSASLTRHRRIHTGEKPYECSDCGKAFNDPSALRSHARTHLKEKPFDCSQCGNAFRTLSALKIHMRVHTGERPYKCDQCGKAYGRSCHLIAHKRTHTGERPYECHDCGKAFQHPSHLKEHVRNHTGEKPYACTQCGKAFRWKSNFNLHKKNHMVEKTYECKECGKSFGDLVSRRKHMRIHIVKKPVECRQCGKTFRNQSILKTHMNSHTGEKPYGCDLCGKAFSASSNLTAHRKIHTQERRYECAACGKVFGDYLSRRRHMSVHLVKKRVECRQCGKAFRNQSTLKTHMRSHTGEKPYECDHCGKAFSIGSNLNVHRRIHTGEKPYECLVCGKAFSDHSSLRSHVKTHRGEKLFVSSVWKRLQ
Chain of Cytoplasmic protein NCK2 (Homo sapiens), O43639 E125K (O43639 whole entry E125K): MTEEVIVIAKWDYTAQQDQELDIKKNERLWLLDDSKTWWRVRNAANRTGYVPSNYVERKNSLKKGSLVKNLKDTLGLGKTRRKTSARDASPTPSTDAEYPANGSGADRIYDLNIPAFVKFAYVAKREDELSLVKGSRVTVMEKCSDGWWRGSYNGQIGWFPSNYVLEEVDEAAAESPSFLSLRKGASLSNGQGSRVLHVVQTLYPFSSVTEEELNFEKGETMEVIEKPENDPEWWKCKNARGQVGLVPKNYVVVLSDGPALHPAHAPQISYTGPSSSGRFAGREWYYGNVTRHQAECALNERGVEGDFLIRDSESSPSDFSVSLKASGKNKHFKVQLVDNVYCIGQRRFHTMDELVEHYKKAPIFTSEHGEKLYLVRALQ
Chain of sf3a3_human SF3A3 (Q12874 whole entry): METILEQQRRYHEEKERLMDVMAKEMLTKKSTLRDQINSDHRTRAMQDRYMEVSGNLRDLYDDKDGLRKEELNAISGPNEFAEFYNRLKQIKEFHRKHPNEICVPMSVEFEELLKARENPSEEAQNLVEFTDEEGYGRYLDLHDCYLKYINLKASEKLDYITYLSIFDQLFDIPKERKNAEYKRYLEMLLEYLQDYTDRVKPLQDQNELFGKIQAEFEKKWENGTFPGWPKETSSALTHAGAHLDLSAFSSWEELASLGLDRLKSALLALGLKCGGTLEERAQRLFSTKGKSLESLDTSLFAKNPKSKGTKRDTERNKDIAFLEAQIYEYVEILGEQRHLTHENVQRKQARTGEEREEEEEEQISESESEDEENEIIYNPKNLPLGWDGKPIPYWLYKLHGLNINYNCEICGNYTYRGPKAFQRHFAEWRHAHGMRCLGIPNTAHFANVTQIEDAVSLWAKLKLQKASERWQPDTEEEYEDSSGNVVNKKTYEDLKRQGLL
Chain of Zinc finger protein 212 (Homo sapiens), Q9UDV6 E225K (Q9UDV6 whole entry E225K): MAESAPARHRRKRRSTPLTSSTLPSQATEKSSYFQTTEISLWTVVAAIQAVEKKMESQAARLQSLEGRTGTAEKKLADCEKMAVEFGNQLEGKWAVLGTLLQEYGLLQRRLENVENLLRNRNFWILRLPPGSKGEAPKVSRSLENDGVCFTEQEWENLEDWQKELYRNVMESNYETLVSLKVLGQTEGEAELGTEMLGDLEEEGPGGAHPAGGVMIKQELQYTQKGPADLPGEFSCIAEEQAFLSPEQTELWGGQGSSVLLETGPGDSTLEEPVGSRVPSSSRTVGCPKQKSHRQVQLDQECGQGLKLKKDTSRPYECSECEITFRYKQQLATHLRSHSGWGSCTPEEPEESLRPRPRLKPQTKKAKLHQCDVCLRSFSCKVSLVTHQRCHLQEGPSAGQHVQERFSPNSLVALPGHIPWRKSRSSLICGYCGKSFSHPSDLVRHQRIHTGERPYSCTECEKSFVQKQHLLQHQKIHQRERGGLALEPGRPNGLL
Chain of Anamorsin (Homo sapiens), Q6FI81 A34E (Q6FI81 whole entry A34E): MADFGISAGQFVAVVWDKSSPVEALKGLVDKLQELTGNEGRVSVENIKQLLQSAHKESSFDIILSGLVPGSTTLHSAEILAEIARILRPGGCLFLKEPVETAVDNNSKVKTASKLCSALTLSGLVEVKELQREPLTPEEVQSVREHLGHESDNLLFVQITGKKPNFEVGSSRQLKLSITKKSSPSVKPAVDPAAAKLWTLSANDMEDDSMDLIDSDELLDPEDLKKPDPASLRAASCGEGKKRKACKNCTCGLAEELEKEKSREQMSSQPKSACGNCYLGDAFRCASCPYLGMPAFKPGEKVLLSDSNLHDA
Chain of Zinc finger protein 212 (Homo sapiens), Q9UDV6 H293Y (Q9UDV6 whole entry H293Y): as the sequence (Q9UDV6 whole entry E225K) above, with K225E, H293Y counted along it
Chain of Zinc finger protein 114 (Homo sapiens), Q8NC26 V207A (Q8NC26 whole entry V207A): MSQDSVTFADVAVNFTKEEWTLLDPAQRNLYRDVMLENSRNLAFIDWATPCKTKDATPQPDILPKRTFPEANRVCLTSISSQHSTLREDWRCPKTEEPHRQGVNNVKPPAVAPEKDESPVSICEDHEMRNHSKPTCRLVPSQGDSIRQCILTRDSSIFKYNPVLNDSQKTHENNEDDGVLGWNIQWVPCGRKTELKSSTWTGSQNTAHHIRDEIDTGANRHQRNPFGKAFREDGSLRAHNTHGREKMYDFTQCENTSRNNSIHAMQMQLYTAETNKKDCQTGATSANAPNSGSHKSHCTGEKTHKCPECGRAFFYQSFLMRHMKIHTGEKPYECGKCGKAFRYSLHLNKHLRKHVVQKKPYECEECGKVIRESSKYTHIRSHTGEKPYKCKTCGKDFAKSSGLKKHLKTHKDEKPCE

Substance: Programmed cell death protein 10 (Homo sapiens), Q9BUL8 M92V
- effect of a mutation on the interaction [1]: with no effect

Substance: Zinc finger protein 212 (Homo sapiens), Q9UDV6 E225K
- effect of a mutation on the interaction [2]: with no effect
- effect of a mutation on the interaction [3]: with no effect

Substance: DNA polymerase beta (Homo sapiens) (from UniProt P06746) P242R
- effect of a mutation on the interaction [4]: with no effect

Substance: Golgi reassembly-stacking protein 1 (Homo sapiens), Q9BQQ3 T425M
- effect of a mutation on the interaction [5]: with no effect

Substance: Calcium-binding protein 5 (Homo sapiens), Q9NP86 E140K
- effect of a mutation on the interaction [6]: with no effect

Substance: RNA-binding protein FXR2 (Homo sapiens), P51116 R483Q
- effect of a mutation on the interaction [7]: with no effect
- effect of a mutation on the interaction [8]: with no effect

Substance: Programmed cell death protein 10 (Homo sapiens), Q9BUL8 M20V
- effect of a mutation on the interaction [9]: with no effect

Substance: Tripeptidyl-peptidase 2 (Homo sapiens), P29144 T998R
- effect of a mutation on the interaction [10]: with no effect
- effect of a mutation on the interaction [11]: with no effect
- effect of a mutation on the interaction [12]: with no effect

Substance: Zinc finger protein 212 (Homo sapiens), Q9UDV6 H293Y
- effect of a mutation on the interaction [2]: with no effect
- effect of a mutation on the interaction [3]: with no effect

Substance: Zinc finger protein 317 (Homo sapiens), Q96PQ6 Q19H
- effect of a mutation on the interaction [13]: with no effect
- effect of a mutation on the interaction [14]: with no effect
- effect of a mutation on the interaction [15]: with no effect

Substance: Serine/arginine-rich splicing factor 6 (Homo sapiens) (from UniProt Q13247-1) R145Q
- effect of a mutation on the interaction [16]: with no effect
- effect of a mutation on the interaction [17]: with no effect

Substance: Anamorsin (Homo sapiens), Q6FI81 A34E
- effect of a mutation on the interaction [18]: with no effect
- effect of a mutation on the interaction [19]: disrupting interaction strength

Substance: Homeobox protein Hox-C9 (Homo sapiens), P31274 A122V
- effect of a mutation on the interaction [20]: with no effect

Substance: Cytoplasmic protein NCK2 (Homo sapiens), O43639 E125K
- effect of a mutation on the interaction [21]: with no effect
- effect of a mutation on the interaction [22]: with no effect
- effect of a mutation on the interaction [23]: with no effect

Substance: Argininosuccinate lyase (Homo sapiens), P04424 R12Q
- effect of a mutation on the interaction [24]: with no effect

Substance: Zinc finger protein 114 (Homo sapiens), Q8NC26 V207A
- effect of a mutation on the interaction [25]: with no effect
- effect of a mutation on the interaction [26]: with no effect

Substance: Golgi reassembly-stacking protein 2 (Homo sapiens) (from UniProt Q9H8Y8) T415M
- effect of a mutation on the interaction [27]: with no effect
- effect of a mutation on the interaction [28]: with no effect
- effect of a mutation on the interaction [29]: with no effect
- effect of a mutation on the interaction [30]: with no effect
- effect of a mutation on the interaction [31]: with no effect
- effect of a mutation on the interaction [32]: with no effect
- effect of a mutation on the interaction [33]: with no effect

Substance: Histone-lysine N-methyltransferase EZH2 (Homo sapiens), Q15910 M439T
- effect of a mutation on the interaction [34]: disrupting interaction strength

Substance: Zinc finger protein 263 (Homo sapiens), O14978 C310S
- effect of a mutation on the interaction [35]: with no effect

Substance: Zinc finger protein 747 (Homo sapiens), Q9BV97 G28R
- effect of a mutation on the interaction [36]: with no effect

Substance: FAD synthase (Homo sapiens), Q8NFF5 R437H
- effect of a mutation on the interaction [37]: with no effect

Substance: Ribosomal RNA small subunit methyltransferase NEP1 (Homo sapiens) (from UniProt Q92979) A34G
- effect of a mutation on the interaction [38]: with no effect

Substance: Tripeptidyl-peptidase 2 (Homo sapiens), P29144 V1121I
- effect of a mutation on the interaction [10]: with no effect
- effect of a mutation on the interaction [11]: with no effect
- effect of a mutation on the interaction [12]: with no effect

Substance: Zinc finger protein 398 (Homo sapiens), Q8TD17 V252M
- effect of a mutation on the interaction [39]: with no effect
- effect of a mutation on the interaction [40]: with no effect

Substance: Zinc finger protein 223 (Homo sapiens), Q9UK11 S357A
- effect of a mutation on the interaction [41]: with no effect
- effect of a mutation on the interaction [42]: with no effect
- effect of a mutation on the interaction [43]: with no effect
